Substitutions are numbered along the chain they refer to.
Assays:
Test in all cases: high-throughput RNA pulldown from lysate on Ni-NTA beads; HRP: 50 mM Tris pH 8, 150 mM NaCl, 1 mM beta-mercaptoethanol, 50 ug/ml BSA, 3 ug/ml yeast RNA, 0.5% heparin; ITC and FP: Tris pH 8, 200 mM KCl, 5% glycerol; MST: 50 mM Tris pH 8, 200 mM NaCl, 1 mM DTT, BSA, heparin, 0.05% Tween 20
Conditions in all cases: tags: N-terminal His-eGFP
[1] = biological target: T1, GFP-9S library array, motif 4 ND N98D;D124L (synthetic construct, N98D;D124L)
T1 chain: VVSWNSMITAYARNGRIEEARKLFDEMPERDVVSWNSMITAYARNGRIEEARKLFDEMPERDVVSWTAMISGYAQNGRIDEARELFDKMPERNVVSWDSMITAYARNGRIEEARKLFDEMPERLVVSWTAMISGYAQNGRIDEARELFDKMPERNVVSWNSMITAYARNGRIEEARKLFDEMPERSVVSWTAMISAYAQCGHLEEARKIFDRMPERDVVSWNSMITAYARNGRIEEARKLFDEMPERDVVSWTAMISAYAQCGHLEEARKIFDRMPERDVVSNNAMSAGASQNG

[2] = biological target: T2, GFP-9S library array, motif 4 ND N98W;D124P (synthetic construct, N98W;D124P)
T2 chain: T1 chain with D98W, L124P

[3] = biological target: T3, GFP-9S library array, motif 4 ND N98A;D124I (synthetic construct, N98A;D124I)
T3 chain: T1 chain with D98A, L124I

[4] = biological target: T4, GFP-9S library array, motif 4 ND N98Q;D124G (synthetic construct, N98Q;D124G)
T4 chain: T1 chain with D98Q, L124G

[5] = biological target: T5, GFP-9S library array, motif 4 ND N98G;D124Q (synthetic construct, N98G;D124Q)
T5 chain: T1 chain with D98G, L124Q

Binder	Kd ([1]; label: 5' Cy5)	Kd ([2]; label: 5' Cy5)	Kd ([3]; label: 5' Cy5)	Kd ([4]; label: 5' Cy5)	Kd ([5]; label: 5' Cy5)	Kd ([1]; label: 5' IRDye 800CW)	Kd ([2]; label: 5' IRDye 800CW)	Kd ([3]; label: 5' IRDye 800CW)	Kd ([4]; label: 5' IRDye 800CW)	Kd ([5]; label: 5' IRDye 800CW)
AUUAGACGUGA (ssRNA) [Cy5-rpoA-G]	52.3 nM	215 nM	107 nM	166 nM	109 nM					
AUUACACGUGA (ssRNA) [Cy5-rpoA]	133 nM	230 nM	103 nM	154 nM	96.6 nM					
AUUAAACGUGA (ssRNA) [IR-rpoA-A]						90.5 nM	579 nM	203 nM	373 nM	150 nM
AUUAUACGUGA (ssRNA) [IR-rpoA-U]						408 nM	526 nM	249 nM	321 nM	142 nM

Reference: paper PMC8809517, “Cofactor-independent RNA editing by a synthetic S-type PPR protein”
